Results on two proteins are retold here after paper PMC7037036, “C-Terminal Domain of the Human Zinc Transporter hZnT8 Is Structurally Indistinguishable from Its Disease Risk Variant (R325W)” (International Journal of Molecular Sciences, 2020).

Changes are numbered by the printed parent chain. In names and notes the source's numbering stands.

In general, stoichiometry N refers to the number of molecules, sites or subunits per partner or assembly.

The series concerns the molecule itself. Kind of series: SEC; Superdex 75, protein 10 mg/mL, 20 mM Tris pH 7.5, 150 mM NaCl, native conditions; calibrated with standard proteins; for the WT CTD the profile was similar with 3 mM beta-mercaptoethanol and the tetramer was kept in 8 M urea (some aggregates). On the technique in general: In gel filtration, larger molecules generally elute earlier.

B1: C-terminal domain (CTD) of the human zinc transporter 8 (hZnT8), wild type (domain or fragment, UniProt Q8IWU4 281-369, looked up)
chain: SLNYSGVKELILAVDGVLSVHSLHIWSLTMNQVILSAHVATAASRDSQVVRREIAKALSKSFTMHSLTIQMESPVDQDPDCLFCEDPCD
notes: human zinc transporter 8 (hZnT8, SLC30A8), C-terminal domain, Ser281-Asp369; Expressed as His-MBP-TEV-CTD from a pET28a-based vector; N-terminal tags removed with TEV protease; Measured mass 9.828 kDa; also called WT CTD; hZnT8 CTD; source: E. coli BL21 (DE3), purified (Ni-NTA, TEV cleavage, Hi-Trap Q anion exchange, repeated Ni-NTA, amylose resin); not shown: His tag, N-terminal, cleaved; MBP, …
As for B1, the “stoichiometry N” value was determined as 4.

B2: C-terminal domain (CTD) of the human zinc transporter 8 (hZnT8), disease risk variant R325W (domain or fragment, UniProt Q8IWU4 281-369, looked up)
chain: B1 chain with R45W
notes: human zinc transporter 8 (hZnT8, SLC30A8), C-terminal domain, Ser281-Asp369, natural variant R325W (SNP rs13266634); Made from the WT CTD plasmid by QuikChange site-directed mutagenesis; N-terminal tags removed with TEV protease; also called R325W CTD; CTD of the disease risk variant; source: E. coli BL21 (DE3), purified (Ni-NTA, TEV cleavage, Hi-Trap Q anion exchange, repeated Ni-NTA, amylose …)
For B2, the “stoichiometry N” value was 4.
